The values that follow come from article doi:10.1101/2024.05.10.593562 (bioRxiv, 2024).

In this test the target is HDAC1-FLAG (UniProt Q13547 1-482). As to the kind of experiment: AlphaScreen or HTRF. For orientation: In Alpha technology, singlet oxygen from a donor bead excites a nearby acceptor bead.
HDAC1-FLAG, sequence (Q13547 whole entry): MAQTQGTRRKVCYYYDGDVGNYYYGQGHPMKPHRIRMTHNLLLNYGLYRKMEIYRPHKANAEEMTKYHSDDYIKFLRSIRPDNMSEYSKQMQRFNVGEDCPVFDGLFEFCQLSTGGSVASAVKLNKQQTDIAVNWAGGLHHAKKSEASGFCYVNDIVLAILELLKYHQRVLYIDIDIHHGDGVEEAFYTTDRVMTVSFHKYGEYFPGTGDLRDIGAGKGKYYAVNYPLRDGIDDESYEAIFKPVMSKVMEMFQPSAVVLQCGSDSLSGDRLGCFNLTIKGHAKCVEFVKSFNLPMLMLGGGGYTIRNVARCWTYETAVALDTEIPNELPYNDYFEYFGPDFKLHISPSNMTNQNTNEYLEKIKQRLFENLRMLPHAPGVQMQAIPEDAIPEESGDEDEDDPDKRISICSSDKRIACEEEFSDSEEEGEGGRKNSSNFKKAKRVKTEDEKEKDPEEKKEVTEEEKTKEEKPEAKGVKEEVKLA

B1: GST-Rb 380-785 (domain or fragment)
chain: NTIQQLMMILNSASDQPSENLISYFNNCTVNPKESILKRVKDIGYIFKEKFAKAVGQGCVEIGSQRYKLGVRLYYRVMESMLKSEEERLSIQNFSKLLNDNIFHMSLLACALEVVMATYSRSTSQNLDSGTDLSFPWILNVLNLKAFDFYKVIESFIKAEGNLTREMIKHLERCEHRIMESLAWLSDSPLFDLIKQSKDREGPTDHLESACPLNLPLQNNHTAADMYLSPVRSPKKKGSTTRVNSTANAETQATSAFQTQKPLKSTSLSLFYKKVYRLAYLRLNTLCERLLSEHPELEHIIWTLFQHTLQNEYELMRDRHLDQIMMCSMYGICKVKNIDLKFKIIVTAYKDLPHAVQETFKRVLIKEEEYDSIIVFYNSVFMQRLKTNILQYASTRPPTLSPIPHI
As for B1, the binding result is “binds”.
